Laboratory results taken from patent publication US20040147006.

What was measured:
[1] = tested on: phosphorylated T-ag peptide of SEQ ID NO: 15 used in the ATPase assay
[2] = tested on: unphosphorylated peptide T-2 13 (SEQ ID NO: 3)
[3] = tested on: phosphorylated peptide E1-P1 25 (SEQ ID NO: 18)
[4] = tested on: unphosphorylated peptide E1-P2 25 (SEQ ID NO: 2)

SV40 T-antigen (T-ag) was tested, and the “ATPase of T-ag (32P-ATP hydrolysis, TLC autoradiography)” value (shortened to “ATPase of T-ag”) [1] was “the phosphorylated peptide did not modulate the ATPase of T-ag activity”, the “ATPase of T-ag” value [2] was “this peptide inhibited the ATPase of T-ag” and the “ATPase of T-ag” value [3] was “had no effect”. For the same substance, the “ATPase of T-ag” value [4] was “blocked the degradation of ATP by T-ag”.
